Results on 2 molecules are retold here after PMC7337490.

The target in assay [1] is T1, GFP-MKLP2 WT (human), O95235.
T1 chain: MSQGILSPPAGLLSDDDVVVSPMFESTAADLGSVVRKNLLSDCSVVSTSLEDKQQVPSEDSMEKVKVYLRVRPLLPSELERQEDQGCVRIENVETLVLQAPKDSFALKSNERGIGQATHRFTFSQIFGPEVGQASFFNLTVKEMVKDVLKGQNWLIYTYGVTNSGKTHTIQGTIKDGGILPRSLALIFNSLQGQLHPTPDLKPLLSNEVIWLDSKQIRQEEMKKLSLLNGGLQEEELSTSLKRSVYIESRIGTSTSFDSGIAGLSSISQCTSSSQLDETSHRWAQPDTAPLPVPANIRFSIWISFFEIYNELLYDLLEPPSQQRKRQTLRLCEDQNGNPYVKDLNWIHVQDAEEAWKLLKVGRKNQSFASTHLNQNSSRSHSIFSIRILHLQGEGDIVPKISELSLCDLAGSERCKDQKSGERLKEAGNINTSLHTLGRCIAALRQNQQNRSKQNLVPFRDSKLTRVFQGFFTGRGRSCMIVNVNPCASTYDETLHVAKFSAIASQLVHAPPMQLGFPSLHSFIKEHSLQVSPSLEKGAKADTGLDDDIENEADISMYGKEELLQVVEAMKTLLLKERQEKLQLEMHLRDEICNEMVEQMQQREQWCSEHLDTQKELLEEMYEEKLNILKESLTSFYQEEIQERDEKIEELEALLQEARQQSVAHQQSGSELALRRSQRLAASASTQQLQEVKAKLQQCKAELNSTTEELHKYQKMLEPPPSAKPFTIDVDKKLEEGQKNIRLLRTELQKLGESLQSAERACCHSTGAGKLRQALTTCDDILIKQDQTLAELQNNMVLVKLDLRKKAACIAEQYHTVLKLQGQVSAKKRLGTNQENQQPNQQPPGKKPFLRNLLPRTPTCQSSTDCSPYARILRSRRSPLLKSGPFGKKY
Briefly: SEC; 1 mg lysate of nocodazole-arrested HeLa cells on Superose 6 10/300 at 4°C; fractions Western blotted for MKLP2 and GFP; size from calibration standards. The conditions noted are these: remark: other sources report otherwise. (In gel filtration, larger molecules generally elute earlier.)

The target in assay [2] is T2, MKLP2 (endogenous) (human (endogenous in HeLa)), O95235.
T2 chain: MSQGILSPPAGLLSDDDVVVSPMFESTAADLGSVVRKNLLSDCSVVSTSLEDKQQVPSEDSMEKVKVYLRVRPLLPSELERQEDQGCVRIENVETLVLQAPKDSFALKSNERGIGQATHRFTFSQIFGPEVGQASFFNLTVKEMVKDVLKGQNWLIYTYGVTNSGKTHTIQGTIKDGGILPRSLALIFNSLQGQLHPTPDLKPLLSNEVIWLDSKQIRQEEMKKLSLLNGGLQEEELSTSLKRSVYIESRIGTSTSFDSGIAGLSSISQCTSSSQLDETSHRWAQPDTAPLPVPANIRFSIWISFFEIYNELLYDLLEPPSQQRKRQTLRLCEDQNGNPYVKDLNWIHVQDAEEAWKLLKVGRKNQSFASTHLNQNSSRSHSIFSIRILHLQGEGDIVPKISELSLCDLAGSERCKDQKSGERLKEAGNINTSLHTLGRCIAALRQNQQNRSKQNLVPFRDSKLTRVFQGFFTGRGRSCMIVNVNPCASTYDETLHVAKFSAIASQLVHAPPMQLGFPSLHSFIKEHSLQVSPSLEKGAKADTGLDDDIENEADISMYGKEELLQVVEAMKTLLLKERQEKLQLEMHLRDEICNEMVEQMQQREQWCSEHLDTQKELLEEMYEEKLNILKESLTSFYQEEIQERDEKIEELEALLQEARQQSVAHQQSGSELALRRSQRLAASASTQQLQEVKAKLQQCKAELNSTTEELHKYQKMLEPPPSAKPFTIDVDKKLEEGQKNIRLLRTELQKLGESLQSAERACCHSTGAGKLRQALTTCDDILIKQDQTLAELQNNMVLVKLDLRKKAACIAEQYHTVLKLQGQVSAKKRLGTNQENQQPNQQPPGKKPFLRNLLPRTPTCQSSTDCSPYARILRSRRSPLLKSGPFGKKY
Described as above. The following applies: remark: other sources report otherwise.

B1: GFP-MKLP2 WT, O95235 1-890 (natural protein)
chain: MSQGILSPPAGLLSDDDVVVSPMFESTAADLGSVVRKNLLSDCSVVSTSLEDKQQVPSEDSMEKVKVYLRVRPLLPSELERQEDQGCVRIENVETLVLQAPKDSFALKSNERGIGQATHRFTFSQIFGPEVGQASFFNLTVKEMVKDVLKGQNWLIYTYGVTNSGKTHTIQGTIKDGGILPRSLALIFNSLQGQLHPTPDLKPLLSNEVIWLDSKQIRQEEMKKLSLLNGGLQEEELSTSLKRSVYIESRIGTSTSFDSGIAGLSSISQCTSSSQLDETSHRWAQPDTAPLPVPANIRFSIWISFFEIYNELLYDLLEPPSQQRKRQTLRLCEDQNGNPYVKDLNWIHVQDAEEAWKLLKVGRKNQSFASTHLNQNSSRSHSIFSIRILHLQGEGDIVPKISELSLCDLAGSERCKDQKSGERLKEAGNINTSLHTLGRCIAALRQNQQNRSKQNLVPFRDSKLTRVFQGFFTGRGRSCMIVNVNPCASTYDETLHVAKFSAIASQLVHAPPMQLGFPSLHSFIKEHSLQVSPSLEKGAKADTGLDDDIENEADISMYGKEELLQVVEAMKTLLLKERQEKLQLEMHLRDEICNEMVEQMQQREQWCSEHLDTQKELLEEMYEEKLNILKESLTSFYQEEIQERDEKIEELEALLQEARQQSVAHQQSGSELALRRSQRLAASASTQQLQEVKAKLQQCKAELNSTTEELHKYQKMLEPPPSAKPFTIDVDKKLEEGQKNIRLLRTELQKLGESLQSAERACCHSTGAGKLRQALTTCDDILIKQDQTLAELQNNMVLVKLDLRKKAACIAEQYHTVLKLQGQVSAKKRLGTNQENQQPNQQPPGKKPFLRNLLPRTPTCQSSTDCSPYARILRSRRSPLLKSGPFGKKY
On to B1, for which the stoichiometry N in assay [1] is 2.

B2: MKLP2 (endogenous), O95235 1-890 (natural protein)
chain: MSQGILSPPAGLLSDDDVVVSPMFESTAADLGSVVRKNLLSDCSVVSTSLEDKQQVPSEDSMEKVKVYLRVRPLLPSELERQEDQGCVRIENVETLVLQAPKDSFALKSNERGIGQATHRFTFSQIFGPEVGQASFFNLTVKEMVKDVLKGQNWLIYTYGVTNSGKTHTIQGTIKDGGILPRSLALIFNSLQGQLHPTPDLKPLLSNEVIWLDSKQIRQEEMKKLSLLNGGLQEEELSTSLKRSVYIESRIGTSTSFDSGIAGLSSISQCTSSSQLDETSHRWAQPDTAPLPVPANIRFSIWISFFEIYNELLYDLLEPPSQQRKRQTLRLCEDQNGNPYVKDLNWIHVQDAEEAWKLLKVGRKNQSFASTHLNQNSSRSHSIFSIRILHLQGEGDIVPKISELSLCDLAGSERCKDQKSGERLKEAGNINTSLHTLGRCIAALRQNQQNRSKQNLVPFRDSKLTRVFQGFFTGRGRSCMIVNVNPCASTYDETLHVAKFSAIASQLVHAPPMQLGFPSLHSFIKEHSLQVSPSLEKGAKADTGLDDDIENEADISMYGKEELLQVVEAMKTLLLKERQEKLQLEMHLRDEICNEMVEQMQQREQWCSEHLDTQKELLEEMYEEKLNILKESLTSFYQEEIQERDEKIEELEALLQEARQQSVAHQQSGSELALRRSQRLAASASTQQLQEVKAKLQQCKAELNSTTEELHKYQKMLEPPPSAKPFTIDVDKKLEEGQKNIRLLRTELQKLGESLQSAERACCHSTGAGKLRQALTTCDDILIKQDQTLAELQNNMVLVKLDLRKKAACIAEQYHTVLKLQGQVSAKKRLGTNQENQQPNQQPPGKKPFLRNLLPRTPTCQSSTDCSPYARILRSRRSPLLKSGPFGKKY
With B2, the stoichiometry N in assay [2] stood at 2.

Usually stoichiometry N stands for a count of units in the complex or per binding partner.
